B1: HDV Ribozyme (parent)
chain: GGCCGGCAUGGUCCCAGCCUCCUCGCUGGCGCCGGCUGGGCAACAUUCCGAGGGGACCGUCCCCUCGGUAAUGGCGAAUGGGACCCA

The series covers variants of B1. As to the kind of experiment: self-cleavage, relative activity (ratio to wild type); higher = more cleavage; co-transcriptional.
Turning to C4U C62U, the self-cleavage came to 0.656.
For C4U C21U, the self-cleavage worked out at 0.0678.
On to C4A A83U, for which the self-cleavage turned out to be 0.0959.
For C4A A83G, the self-cleavage worked out at 0.234.
The same measure for C4A A83C: 0.232.
As to C4G C30A, the self-cleavage was found to be 0.0601.
For C4U C33U the value was 0.612.
For C4U C33G, the self-cleavage was 0.
The same measure for C4U A83G: 0.464; for C4A G6C: 0.0594; for C4A U79A: 0.0739.
For C4G C84U the value was 0.249; for C4G C84G, 0.
The same measure for C4G U12C: 0.0665; for C4G U12G: 0.18; for C4G A45G: 0.201.
Take C4G A45U: the self-cleavage is 0.161.
Regarding C4A G59C, the self-cleavage was found to be 0.302.
For C4A G59A the value was 0.346.
The same measure for C4G G55U: 0.376.
The same measure for C4G G55C: 0.185; for C4G A16G: 0.453.
Consider C4G G29C, for which the self-cleavage was 0.
The same measure for C4G G10A: 0.105; for C4G C62G: 0.123; for C4A G68C: 0.115.
For C4A G68A, the self-cleavage was 0.196.
The same measure for C4U A16C: 0.434; for C3U U37G: 0.0639; for C4U G29U: 0.0302.
The same measure for C4A G5A: 0.13; for C3U U46G: 0.446.
For C3U U46C the value was 0.567; for C3U U46A, 0.628.
As to C4U C75G, the self-cleavage turned out to be 0.122.
The same measure for C4G G5A: 0.0519; for C4G G5U: 0.0545; for C4G C41A: 0.162.
Turning to C4G C41U, the self-cleavage is 0.289.
The same measure for C3U U69A: 0.831; for C4A G55C: 0.31.
For C4A G55A, the self-cleavage was determined as 0.3.
For C4G C26A the value was 0.569.
C4G C26G: the self-cleavage stood at 0.306.
For C4G U72G, the self-cleavage was found to be 0.0519.
The same measure for C4G U72A: 0.0437; for C4G U37G: 0.0489.
As for C4G U37A, the self-cleavage turned out to be 0.0462.
For the variant C4U G5U, the self-cleavage was determined as 0.237.
The same measure for C4U G5A: 0.185; for C4A C13U: 0.0739; for C4A G29A: 0.0244.
C4G U9G: the self-cleavage was found to be 0.293.
The same measure for C4G U9C: 0.19; for C4G A78G: 0.0923; for C4A A71C: 0.156.
With C4A G17U, the self-cleavage is 0.0292.
For the variant C4A G17A, the self-cleavage amounted to 0.0396.
For C4G A8G the value was 0.346; for C4G G40U, 0.381; for C4G G40C, 0.128.
For C4U C44G, the self-cleavage is 0.214.
For the variant C4U C7G, the self-cleavage worked out at 0.
For C4A U69G the value was 0.285; for C4U C30U, 0.332; for C4U G40A, 0.604.
As for C4A G28A, the self-cleavage is 0.0489.
Regarding C4A G28U, the self-cleavage is 0.0692.
For C4A A78G the value was 0.147.
The same measure for C4G C64A: 0.219.
With C4G C61U, the self-cleavage is 0.475.
For C4U C24G the value was 0.0678.
The same measure for C4U C24A: 0.0583.
Consider C4A G38A, for which the self-cleavage was 0.133.
On to C4G C14U, for which the self-cleavage turned out to be 0.462.
For C4G C14G the value was 0.
The same measure for C4G C14A: 0.0852.
For C4U A87C the value was 0.708.
As for C4U A70U, the self-cleavage stood at 0.554.
Consider C4A A45U, for which the self-cleavage amounted to 0.095.
For C4A C84A the value was 0.192; for C4A C84G, 0.138.
The same measure for C4U C22G: 0.111; for C4A C66A: 0.177.
For C4G U23A the value was 0.47; for C4U G17U, 0.136.
For C4U G17A, the self-cleavage was determined as 0.332.
For C4A C41U the value was 0.163.
In the case of C4A C41G, the self-cleavage came to 0.0519.
Regarding C4G U69A, the self-cleavage worked out at 0.192.
Consider C4A C36G, for which the self-cleavage was 0.0875.
For C4A C36A the value was 0.0314.
Consider C4G G35A, for which the self-cleavage was 0.
For C4G G35C the value was 0.13; for C4U C57G, 0.629; for C4U C57U, 0.656.
The same measure for C4U C36U: 0.272; for C4U C36A: 0.
For C4U C36G the value was 0.0707; for C4G C63U, 0.249.
For the variant C4G C63A, the self-cleavage turned out to be 0.177.
For C4G C63G the value was 0.0396; for C4A A43C, 0; for C4G C21U, 0.
Take C4G C21A: the self-cleavage amounted to 0.0292.
For C4U C64G the value was 0.538.
For C4A C30A the value was 0.0519.
For C4U A56C the value was 0.522.
On to C4A A42U, for which the self-cleavage came to 0.0997.
On to C4A A42C, for which the self-cleavage stood at 0.0332.
The same measure for C4G C48U: 0.306.
For the variant C4G C48G, the self-cleavage was 0.485.
For C4G C48A the value was 0.59; for C4G G80C, 0.0906; for C4G G80A, 0.0203.
For C4G G80U the value was 0.0953; for C4U A43U, 0.332.
Take C4U A43G: the self-cleavage was 0.
As for C4A A16U, the self-cleavage is 0.0665.
For C4G G73U the value was 0.086; for C4A C32U, 0.0489; for C4A C32G, 0.
With C4U C15U, the self-cleavage stood at 0.731.
Turning to C4U C15A, the self-cleavage turned out to be 0.302.
Regarding C4G G39U, the self-cleavage is 0.0346.
Consider C4A G73U, for which the self-cleavage stood at 0.
The same measure for C4U C63U: 0.682; for C4U C63G: 0.396; for C4A U60G: 0.0449.
Regarding C4A U60C, the self-cleavage stood at 0.344.
C4A U60A: the self-cleavage was 0.284.
Turning to C4A G50U, the self-cleavage was determined as 0.372.
Regarding C4G G34C, the self-cleavage came to 0.782.
C4A U72A: the self-cleavage amounted to 0.0723.
As to C4A U72G, the self-cleavage came out at 0.111.
For C4G A43G the value was 0; for C4G A43C, 0.0519; for C4U C19G, 0.0268.
The same measure for C4U C19U: 0.0665; for C3U U65C: 0.78; for C3U U65A: 0.872.
The same measure for C4A C18A: 0.0277; for C4A C18G: 0.166.
As for C4A C49U, the self-cleavage turned out to be 0.282.
Regarding C4A C49A, the self-cleavage is 0.424.
The same measure for C4A C63A: 0.354; for C4A G74U: 0.0583; for C4A U20C: 0.214.
On to C4G G38A, for which the self-cleavage was found to be 0.
The same measure for C4G G38U: 0.0287; for C4A G40A: 0.214; for C4A G40U: 0.199.
Take C4G U20A: the self-cleavage was 0.0536.
Regarding C4G U20G, the self-cleavage is 0.
Turning to C4G U46A, the self-cleavage turned out to be 0.0573.
Regarding C4U G35U, the self-cleavage is 0.162.
As to C4A C64U, the self-cleavage is 0.277.
For C4U C14A the value was 0.519; for C4U C14U, 1.04.
For the variant C4A G76A, the self-cleavage was 0.208.
As for C4A G76C, the self-cleavage worked out at 0.253.
The same measure for C4A G76U: 0.554.
As to C4G C57A, the self-cleavage was found to be 0.374.
C4G C57G: the self-cleavage was determined as 0.489.
Consider C4A C15U, for which the self-cleavage came to 0.0378.
For C4A C15G the value was 0.166.
For C4A C33A the value was 0.
